The data set concerns the molecule itself. Put plainly: SEC-MALS; 500 uL sample at 1 mg/mL on Superdex 75 10/30 in 50 mM Tris-HCl, 0.15 M NaCl, pH 8.0, online triple-angle static light scattering (MiniDAWN Treos).

We go through 1 protein from paper PMC3838848 (BioMed Research International, 2013).

B1: POZ/BTB domain of KCTD6 (domain or fragment, human, UniProt Q8NC69 10-110, looked up)
chain: MTDPVTLNVGGHLYTTSLTTLTRYPDSMLGAMFGGDFPTARDPQGNYFIDRDGPLFRYVLNFLRTSELTLPLDFKEFDLLRKEADFYQIEPLIQCLNDPKP
notes: KCTD6, human, POZ/BTB domain, residues 10-110 of the protein of 237 residues (UniProt Q8NC69); cDNA NM_153331; also called KCTD6BTB; source: E. coli BL21(DE3) Star, purified
In general, stoichiometry N refers to the number of molecules, sites or subunits per partner or assembly. Regarding B1, the “stoichiometry N” value was 4.
